Results from article PMC4967814.

Target: each of 12 IFNα subtypes and IFNω (ISRE-luciferase reporter assay, median IC50)

B1: rontalizumab, in-house-generated recombinant (antibody, INN chains, looked up, V domains shown)
VH: EVQLVESGGGLVQPGGSLRLSCATSGYTFTEYIIHWVRQAPGKGLEWVASINPDYDITNYNQRFKGRFTISLDKSKRTAYLQMNSLRAEDTAVYYCASWISDFFDYWGQGTLVTVSS
VL: DIQMTQSPSSLSASVGDRVTITCRASQSVSTSSYSYMHWYQQKPGKAPKVLISYASNLESGVPSRFSGSGSGTDFTLTISSLQPEDFATYYCQHSWGIPRTFGQGTKVEIKR
median IC50 of inhibition of the IFN-induced ISRE-luciferase reporter response in transfected HEK293 cells: 10.9 ng/mL
